The text below walks through data of patent US20240287172A1 (SCIRHOM, published 2024).

The target of this assay is T1, dog iRhom2 full length wild type, T7-tagged (dog, UniProt Q00M95 1-827).
T1 construct: whole, on cells; on MEF-DKO cells; also called Dog-iR2-FL-WT-T7
T1 sequence: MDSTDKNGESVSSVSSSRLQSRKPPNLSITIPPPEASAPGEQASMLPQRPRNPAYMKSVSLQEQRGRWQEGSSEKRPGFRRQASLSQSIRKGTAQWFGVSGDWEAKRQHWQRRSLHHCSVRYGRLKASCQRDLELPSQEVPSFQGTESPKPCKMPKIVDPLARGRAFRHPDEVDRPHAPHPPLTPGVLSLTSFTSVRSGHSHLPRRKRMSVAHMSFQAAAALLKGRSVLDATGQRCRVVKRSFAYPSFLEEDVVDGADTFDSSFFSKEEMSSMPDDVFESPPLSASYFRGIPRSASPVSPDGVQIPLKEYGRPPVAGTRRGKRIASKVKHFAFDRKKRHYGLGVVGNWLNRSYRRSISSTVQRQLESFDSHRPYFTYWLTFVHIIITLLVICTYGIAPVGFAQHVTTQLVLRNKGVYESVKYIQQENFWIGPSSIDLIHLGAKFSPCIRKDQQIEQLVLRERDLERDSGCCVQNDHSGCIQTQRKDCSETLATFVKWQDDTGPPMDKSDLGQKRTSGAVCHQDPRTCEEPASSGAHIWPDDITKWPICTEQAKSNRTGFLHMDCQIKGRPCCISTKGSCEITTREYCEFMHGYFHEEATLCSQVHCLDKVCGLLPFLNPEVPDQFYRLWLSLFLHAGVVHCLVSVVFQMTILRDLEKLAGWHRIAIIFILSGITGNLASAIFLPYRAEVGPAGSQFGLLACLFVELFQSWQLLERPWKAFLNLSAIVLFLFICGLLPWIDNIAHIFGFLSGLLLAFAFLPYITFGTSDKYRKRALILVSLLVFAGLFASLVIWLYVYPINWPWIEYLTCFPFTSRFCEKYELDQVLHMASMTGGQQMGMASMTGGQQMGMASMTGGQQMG
The assay is described as follows: FACS on MEF-DKO-iR2 Dog cells, 3 µg/ml. On the procedure:
In brief, immortalized MEF-DKO-EV control cells, MEF-DKO-rhesus-iR2-FL-WT-T7 cells, MEF-DKO-cyno-iR2-FL-WT-T7 cells, MEF-DKO-dog-iR2-FL-WT-T7 cells and MEF-DKO-rabbit-iR2-FL-WT-T7 cells, as well as their respective iRhom1 counterparts, were harvested with 10 mM EDTA in PBS, washed and resuspended in FACS buffer (PBS, 3% FBS, 0.05% sodium azide), and seeded in Nunc U-bottom 96-well plates (Thermo Fisher Scientific, USA) at approximately 3×10⁵ cells per well. To pellet cells and remove supernatants, the plates were centrifuged at 1,500 rpm and 4° C. for 3 minutes. For primary staining, cells were resuspended in 100 μl per well of either FACS buffer alone (controls), mouse monoclonal anti-T7 IgG (Merck Millipore, USA) at 3 μg/ml FACS buffer or the antibodies of the invention also at 3 μg/ml FACS buffer and incubated on ice for 1 hour.
Afterwards, plates were centrifuged at 1,500 rpm and 4° C. for 3 minutes and washed twice with 200 μl per well of FACS buffer. For secondary staining, cells were spun down and resuspended in 100 μl per well of PE-conjugated goat anti-mouse IgG F(ab′)2 detection fragment (Dianova, Germany) diluted 1:100 in FACS buffer. Protected from light, the cell suspensions were incubated on ice for 1 hour. […] Finally, cells were resuspended in 150 μl per well of FACS buffer and analyzed using a BD Accuri™ C6 Plus flow cytometer (Becton Dickinson, Germany).

B1: antibody 16 (antibody, V domains shown)
VH: QVTLKESGPGILQPSQTLSLTCSFSGFSLSTFALGVGWIRQPSGRGLEWLAHIWWDDDKYYNPALKSRLTISKDTSKNHVFLKIANVDTADTATYYCARITTYYYGMDYWGQGTSVTVSS
VL: DIVLSQSPATLSVTPGDSVSLFCRASQSIGNHLHWYQQESHASPRLLIKYASQSISGIPSRFSGSGSGTDFTLSINSVETEDFGMYFCQQSYNWPLTFGAGTKLELK
notes: mouse IgG, kappa light chain; also called clone #16; purified antibody 16
Regarding B1, the binding result is on record as “binds”.
